T1: His-tagged ectodomain of B. bronchiseptica pertactin (Prn-E; residues 38-640) (B. bronchiseptica, UniProt Q03035 38-640)
T1 construct: Pertactin of B. bronchiseptica, 60 kDa ectodomain, residues 38-640 of the 93 kDa precursor; the loop deletion mutants carry an N-terminal His tag from pET28b; also called wild-type Prn-E; His-tagged Prn-E
T1 sequence: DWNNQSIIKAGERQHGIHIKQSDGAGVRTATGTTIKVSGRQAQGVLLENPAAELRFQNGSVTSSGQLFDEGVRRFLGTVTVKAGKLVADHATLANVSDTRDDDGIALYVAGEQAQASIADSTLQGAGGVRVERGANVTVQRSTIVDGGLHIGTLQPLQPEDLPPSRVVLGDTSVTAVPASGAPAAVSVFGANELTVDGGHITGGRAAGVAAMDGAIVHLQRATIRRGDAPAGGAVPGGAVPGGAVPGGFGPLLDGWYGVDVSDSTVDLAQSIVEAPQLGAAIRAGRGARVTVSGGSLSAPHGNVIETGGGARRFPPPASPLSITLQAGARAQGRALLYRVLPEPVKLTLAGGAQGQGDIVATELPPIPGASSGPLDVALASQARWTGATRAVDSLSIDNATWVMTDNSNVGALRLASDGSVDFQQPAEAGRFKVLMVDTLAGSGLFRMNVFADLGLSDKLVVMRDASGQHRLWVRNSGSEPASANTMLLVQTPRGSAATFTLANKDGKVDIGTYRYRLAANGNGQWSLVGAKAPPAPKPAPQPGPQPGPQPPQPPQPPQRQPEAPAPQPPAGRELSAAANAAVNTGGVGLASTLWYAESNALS

T2: Biotinylated Prn-E (pertactin residues 38-640 with N-terminal biotinylation sequence) (B. bronchiseptica, UniProt Q03035 38-640, biotin (in vivo biotinylation of the N-terminal biotinylation sequence))
T2 construct: Pertactin of B. bronchiseptica, ectodomain residues 38-640; also called immobilized pertactin
T2 sequence: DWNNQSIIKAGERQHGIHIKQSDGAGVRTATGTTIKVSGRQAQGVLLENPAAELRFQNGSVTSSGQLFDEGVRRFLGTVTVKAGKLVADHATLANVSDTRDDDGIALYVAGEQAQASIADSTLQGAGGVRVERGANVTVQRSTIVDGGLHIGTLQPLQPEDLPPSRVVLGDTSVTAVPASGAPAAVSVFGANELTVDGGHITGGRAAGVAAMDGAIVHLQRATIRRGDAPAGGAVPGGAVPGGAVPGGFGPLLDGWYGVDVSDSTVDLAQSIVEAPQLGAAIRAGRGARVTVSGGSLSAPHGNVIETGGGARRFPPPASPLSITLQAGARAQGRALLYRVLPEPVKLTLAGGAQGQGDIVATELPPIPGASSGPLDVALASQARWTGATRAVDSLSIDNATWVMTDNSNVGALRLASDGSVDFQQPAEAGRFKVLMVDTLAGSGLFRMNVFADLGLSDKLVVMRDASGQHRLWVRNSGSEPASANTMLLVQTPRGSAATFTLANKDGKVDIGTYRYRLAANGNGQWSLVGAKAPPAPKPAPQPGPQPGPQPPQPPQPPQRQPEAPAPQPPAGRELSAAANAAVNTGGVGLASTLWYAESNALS

B1: Bordetella bacteriophage major tropism determinant variant Mtd-P1 (natural protein)
chain: MSTAVQFRGGTTAQHATFTGAAREITVDTDKNTVVVHDGATAGGFPLARHDLVKTAFIKADKSAVAFTRTGNATASIKAGTIVEVNGKLVQFTADTAITMPALTAGTDYAIYVCDDGTVRADSNFSAPTGYTSTTARKVGGFHYAPGSNAAAQAGGNTTAQINEYSLWDIKFRPAALDPRGMTLVAGAFWADIYLLGVNHLTDGTSKYNVTIADGSASPKKSTKFGGDGSAAYSDGAWYNFAEVMTHHGKRLPNYNEFQALAFGTTEATSSGGTDVPTTGVNGTGATSAWNIFTSKWGVVQASGCLWTWGNEFGGVNGASEYTANTGGRGSVYAQPAAALFGGAWNGTSLSGSRAALWYSGPSFSFAFFGARGVCDHLILE
notes: Major tropism determinant (Mtd), variant P1, expressed by Bordetella bacteriophage BPP-1; Mtd has 381 residues in total; trimer of 120 kDa
B2: BPP-1 phage displaying Mtd-P1 (other)
chain: MSTAVQFRGGTTAQHATFTGAAREITVDTDKNTVVVHDGATAGGFPLARHDLVKTAFIKADKSAVAFTRTGNATASIKAGTIVEVNGKLVQFTADTAITMPALTAGTDYAIYVCDDGTVRADSNFSAPTGYTSTTARKVGGFHYAPGSNAAAQAGGNTTAQINEYSLWDIKFRPAALDPRGMTLVAGAFWADIYLLGVNHLTDGTSKYNVTIADGSASPKKSTKFGGDGSAAYSDGAWYNFAEVMTHHGKRLPNYNEFQALAFGTTEATSSGGTDVPTTGVNGTGATSAWNIFTSKWGVVQASGCLWTWGNEFGGVNGASEYTANTGGRGSVYAQPAAALFGGAWNGTSLSGSRAALWYSGPSFSFAFFGARGVCDHLILE
notes: Major tropism determinant (Mtd), variant P1, at the ends of the tail fibers of whole BPP-1 phage; 381 residues; Whole phage particle; The other phage proteins are not written; also called BPP-1(Δbrt); source: phage harvested from B. bronchiseptica RB50 cultures, concentrated by centrifugation and ultrafiltration

What was measured:
[1] = target: T1, His-tagged ectodomain of B. …; experiment: crystal structure; Mtd-P1·Prn-E complex formed with ~1.6-fold molar excess of Mtd-P1 trimers over His-tagged Prn-E, isolated by Ni2+-chelation and Superdex 200; crystals at 25 °C in 2 M NaCl, 100 mM Tris pH 8.5, 200 mM Li2SO4; 3.16 Å; settings: both partners purified
[2] = target: T2, Biotinylated Prn-E (pertactin residues …); experiment: SPR; Biacore 3000, 25 °C; ~100 RU biotinylated Prn-E on a streptavidin chip; Mtd proteins injected in 150 mM NaCl, 50 mM Tris pH 8.0, 0.005% Tween 20 at 30 μl/min; single-site model, global fit, six concentrations, duplicate; settings: both partners purified
[3] = target: T2, Biotinylated Prn-E (pertactin residues …); experiment: SPR; Biacore 3000, 25 °C; ~100 RU biotinylated Prn-E on a streptavidin chip; whole phage injected (BPP-1 ~1.2-3.7 × 10^-15 M, BPP-6 ~1-2 × 10^-16 M, BIP-1 8.3 × 10^-16 to 8.3 × 10^-15 M, BMP-1 e.g. 3.68 × 10^-15 M); multivalent; single-site model, global fit; settings: one partner purified

Binder | stoichiometry N [1] | Kd [2] | kon [2] | Kd [3]
B1 | 3 Mtd-P1 protomers per Prn-E | 3470 ± 130 nM | ~10000 M⁻¹ s⁻¹ | –
B2 | – | – | – | 0.00689 ± 0.00177 nM

From article PMC2408619, “Selective Ligand Recognition by a Diversity-Generating Retroelement Variable Protein” (PLoS Biology, 2008)
